Experimental data from patent publication EP4663654A1 (Hangzhou Sciwind Biosciences Co., Ltd., dated 2025).
One block for each binder: values may come before it. Starred links: 1 amine or outer side, 2 acyl side, 3 side chain; linkers in the order of their positions; H or OH if unused. Non-standard residues stand in square brackets, D forms with d. Primed or numbered codes have the meaning given here. *: point of attachment. C20 diacid = O=C(O)CCCCCCCCCCCCCCCCCCC(=O)*; γGlu = O=C(O)[C@H](CCC(=O)[*:2])N[*:1]; βAsp = O=C(O)[C@H](CC(=O)[*:2])N[*:1]; Hyp = O=C(O)[C@@H]1C[C@@H](O)CN1; Inp′ = not defined here; Trx′ = not defined here; AEEA = NCCOCCOCC(=O)O

Biological target: T1, human amylin receptor (AMY3) on CHO-K1/Ga15/AMY3 amylin receptor/CRE-luc cells (human, UniProt P30988 25-474; O60896 24-148)
T1 sequence (looked up) 1: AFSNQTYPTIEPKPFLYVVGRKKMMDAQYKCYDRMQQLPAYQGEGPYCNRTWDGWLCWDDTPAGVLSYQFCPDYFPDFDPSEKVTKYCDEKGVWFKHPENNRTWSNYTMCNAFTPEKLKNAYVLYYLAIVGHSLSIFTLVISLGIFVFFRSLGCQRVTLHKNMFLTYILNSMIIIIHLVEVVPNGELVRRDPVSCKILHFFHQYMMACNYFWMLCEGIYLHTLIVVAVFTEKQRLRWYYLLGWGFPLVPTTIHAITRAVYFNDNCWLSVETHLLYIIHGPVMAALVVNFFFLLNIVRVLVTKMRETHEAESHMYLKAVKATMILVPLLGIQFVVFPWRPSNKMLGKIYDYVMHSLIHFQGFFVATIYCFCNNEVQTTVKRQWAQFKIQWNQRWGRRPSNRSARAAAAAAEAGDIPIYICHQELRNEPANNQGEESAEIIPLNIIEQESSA
T1 sequence (looked up) 2: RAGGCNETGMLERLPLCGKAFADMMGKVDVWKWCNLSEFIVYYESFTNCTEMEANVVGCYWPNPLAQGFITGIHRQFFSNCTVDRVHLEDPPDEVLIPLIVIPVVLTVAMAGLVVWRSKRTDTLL
Assay: cell-based or functional assay

EC50/nM, CRE-luciferase reporter in amylin receptor/CRE-luc CHO cells: 0.026 nM
Relative activity (the EC50 ratio of Cagrilintide to the compound): 94%
B1: polypeptide derivative M17 (peptide)
peptide: {C20 diacid}-E[AEEA][AEEA]ASQLSTAATQRLADFLRHFTDRDRDILPPTNVGSNTP-NH2
SMILES: CC[C@H](C)[C@H](NC(=O)[C@H](CC(=O)O)NC(=O)[C@H](CCCNC(=N)N)NC(=O)[C@H](CC(=O)O)NC(=O)[C@H](CCCNC(=N)N)NC(=O)[C@H](CC(=O)O)NC(=O)[C@@H](NC(=O)[C@H](Cc1ccccc1)NC(=O)[C@H](Cc1c[nH]cn1)NC(=O)[C@H](CCCNC(=N)N)NC(=O)[C@H](CC(C)C)NC(=O)[C@H](Cc1ccccc1)NC(=O)[C@H](CC(=O)O)NC(=O)[C@H](C)NC(=O)[C@H](CC(C)C)NC(=O)[C@H](CCCNC(=N)N)NC(=O)[C@H](CCC(N)=O)NC(=O)[C@@H](NC(=O)[C@H](C)NC(=O)[C@H](C)NC(=O)[C@@H](NC(=O)[C@H](CO)NC(=O)[C@H](CC(C)C)NC(=O)[C@H](CCC(N)=O)NC(=O)[C@H](CO)NC(=O)[C@H](C)NC(=O)COCCOCCNC(=O)COCCOCCNC(=O)[C@H](CCC(=O)O)NC(=O)CCCCCCCCCCCCCCCCCCC(=O)O)[C@@H](C)O)[C@@H](C)O)[C@@H](C)O)C(=O)N[C@@H](CC(C)C)C(=O)N1CCC[C@H]1C(=O)N1CCC[C@H]1C(=O)N[C@H](C(=O)N[C@@H](CC(N)=O)C(=O)N[C@H](C(=O)NCC(=O)N[C@@H](CO)C(=O)N[C@@H](CC(N)=O)C(=O)N[C@H](C(=O)N1CCC[C@H]1C(N)=O)[C@@H](C)O)C(C)C)[C@@H](C)O

EC50/nM, CRE-luciferase reporter in amylin receptor/CRE-luc CHO cells: 0.017 nM
Relative activity (the EC50 ratio of Cagrilintide to the compound): 171%
Binder: {C20 diacid-Trx′-AEEA-AEEA}-ASQLSTAATQRLADFLRHFTDRDRDILPPTNVGSNTP-NH2 (reading uncertain) [polypeptide derivative M20]

EC50/nM, CRE-luciferase reporter in amylin receptor/CRE-luc CHO cells: 0.03 nM
Relative activity (the EC50 ratio of Cagrilintide to the compound): 81%
Binder: {C20 diacid-Inp′}-ASQLSTAATQRLADFLRHFTDRDRDILPPTNVGSNTP-NH2 [polypeptide derivative M15]

EC50/nM, CRE-luciferase reporter in amylin receptor/CRE-luc CHO cells: 0.042 nM
Relative activity (the EC50 ratio of Cagrilintide to the compound): 58%
B2: polypeptide derivative M16 (peptide)
peptide: {C20 diacid-γGlu-AEEA-AEEA}-ASQLSTAATQRLADFLRHFTDRDRDILPPTNVGSNTP-NH2
SMILES: CC[C@H](C)[C@H](NC(=O)[C@H](CC(=O)O)NC(=O)[C@H](CCCNC(=N)N)NC(=O)[C@H](CC(=O)O)NC(=O)[C@H](CCCNC(=N)N)NC(=O)[C@H](CC(=O)O)NC(=O)[C@@H](NC(=O)[C@H](Cc1ccccc1)NC(=O)[C@H](Cc1c[nH]cn1)NC(=O)[C@H](CCCNC(=N)N)NC(=O)[C@H](CC(C)C)NC(=O)[C@H](Cc1ccccc1)NC(=O)[C@H](CC(=O)O)NC(=O)[C@H](C)NC(=O)[C@H](CC(C)C)NC(=O)[C@H](CCCNC(=N)N)NC(=O)[C@H](CCC(N)=O)NC(=O)[C@@H](NC(=O)[C@H](C)NC(=O)[C@H](C)NC(=O)[C@@H](NC(=O)[C@H](CO)NC(=O)[C@H](CC(C)C)NC(=O)[C@H](CCC(N)=O)NC(=O)[C@H](CO)NC(=O)[C@H](C)NC(=O)COCCOCCNC(=O)COCCOCCNC(=O)CC[C@H](NC(=O)CCCCCCCCCCCCCCCCCCC(=O)O)C(=O)O)[C@@H](C)O)[C@@H](C)O)[C@@H](C)O)C(=O)N[C@@H](CC(C)C)C(=O)N1CCC[C@H]1C(=O)N1CCC[C@H]1C(=O)N[C@H](C(=O)N[C@@H](CC(N)=O)C(=O)N[C@H](C(=O)NCC(=O)N[C@@H](CO)C(=O)N[C@@H](CC(N)=O)C(=O)N[C@H](C(=O)N1CCC[C@H]1C(N)=O)[C@@H](C)O)C(C)C)[C@@H](C)O

EC50/nM, CRE-luciferase reporter in amylin receptor/CRE-luc CHO cells: 0.023 nM
Relative activity (the EC50 ratio of Cagrilintide to the compound): 126%
Binder: {C20 diacid-Inp′-AEEA-AEEA}-ASQLSTAATQRLADFLRHFTDRDRDILPPTNVGSNTP-NH2 [polypeptide derivative M21]

EC50/nM, CRE-luciferase reporter in amylin receptor/CRE-luc CHO cells: 0.038 nM
Relative activity (the EC50 ratio of Cagrilintide to the compound): 68%
B3: polypeptide derivative M2 (peptide)
peptide: {C20 diacid-γGlu}-ASQLSTAVLGRLADFLRHSSNNLKPILPPTNVGSNT[Hyp]-NH2
SMILES: CC[C@H](C)[C@H](NC(=O)[C@@H]1CCCN1C(=O)[C@H](CCCCN)NC(=O)[C@H](CC(C)C)NC(=O)[C@H](CC(N)=O)NC(=O)[C@H](CC(N)=O)NC(=O)[C@H](CO)NC(=O)[C@H](CO)NC(=O)[C@H](Cc1c[nH]cn1)NC(=O)[C@H](CCCNC(=N)N)NC(=O)[C@H](CC(C)C)NC(=O)[C@H](Cc1ccccc1)NC(=O)[C@H](CC(=O)O)NC(=O)[C@H](C)NC(=O)[C@H](CC(C)C)NC(=O)[C@H](CCCNC(=N)N)NC(=O)CNC(=O)[C@H](CC(C)C)NC(=O)[C@@H](NC(=O)[C@H](C)NC(=O)[C@@H](NC(=O)[C@H](CO)NC(=O)[C@H](CC(C)C)NC(=O)[C@H](CCC(N)=O)NC(=O)[C@H](CO)NC(=O)[C@H](C)NC(=O)CC[C@H](NC(=O)CCCCCCCCCCCCCCCCCCC(=O)O)C(=O)O)[C@@H](C)O)C(C)C)C(=O)N[C@@H](CC(C)C)C(=O)N1CCC[C@H]1C(=O)N1CCC[C@H]1C(=O)N[C@H](C(=O)N[C@@H](CC(N)=O)C(=O)N[C@H](C(=O)NCC(=O)N[C@@H](CO)C(=O)N[C@@H](CC(N)=O)C(=O)N[C@H](C(=O)N1C[C@H](O)C[C@H]1C(N)=O)[C@@H](C)O)C(C)C)[C@@H](C)O

EC50/nM, CRE-luciferase reporter in amylin receptor/CRE-luc CHO cells: 0.026 nM
Relative activity (the EC50 ratio of Cagrilintide to the compound): 110%
B4: polypeptide derivative M18 (peptide)
peptide: {C20 diacid-βAsp-AEEA-AEEA}-ASQLSTAATQRLADFLRHFTDRDRDILPPTNVGSNTP-NH2
SMILES: CC[C@H](C)[C@H](NC(=O)[C@H](CC(=O)O)NC(=O)[C@H](CCCNC(=N)N)NC(=O)[C@H](CC(=O)O)NC(=O)[C@H](CCCNC(=N)N)NC(=O)[C@H](CC(=O)O)NC(=O)[C@@H](NC(=O)[C@H](Cc1ccccc1)NC(=O)[C@H](Cc1c[nH]cn1)NC(=O)[C@H](CCCNC(=N)N)NC(=O)[C@H](CC(C)C)NC(=O)[C@H](Cc1ccccc1)NC(=O)[C@H](CC(=O)O)NC(=O)[C@H](C)NC(=O)[C@H](CC(C)C)NC(=O)[C@H](CCCNC(=N)N)NC(=O)[C@H](CCC(N)=O)NC(=O)[C@@H](NC(=O)[C@H](C)NC(=O)[C@H](C)NC(=O)[C@@H](NC(=O)[C@H](CO)NC(=O)[C@H](CC(C)C)NC(=O)[C@H](CCC(N)=O)NC(=O)[C@H](CO)NC(=O)[C@H](C)NC(=O)COCCOCCNC(=O)COCCOCCNC(=O)C[C@H](NC(=O)CCCCCCCCCCCCCCCCCCC(=O)O)C(=O)O)[C@@H](C)O)[C@@H](C)O)[C@@H](C)O)C(=O)N[C@@H](CC(C)C)C(=O)N1CCC[C@H]1C(=O)N1CCC[C@H]1C(=O)N[C@H](C(=O)N[C@@H](CC(N)=O)C(=O)N[C@H](C(=O)NCC(=O)N[C@@H](CO)C(=O)N[C@@H](CC(N)=O)C(=O)N[C@H](C(=O)N1CCC[C@H]1C(N)=O)[C@@H](C)O)C(C)C)[C@@H](C)O

EC50/nM, CRE-luciferase reporter in amylin receptor/CRE-luc CHO cells: 0.018 nM
Relative activity (the EC50 ratio of Cagrilintide to the compound): 136%
Binder: {C20 diacid-Trx′}-ASQLSTAATQRLADFLRHFTDRDRDILPPTNVGSNTP-NH2 (reading uncertain) [polypeptide derivative M14]

EC50/nM, CRE-luciferase reporter in amylin receptor/CRE-luc CHO cells: 0.036 nM
Relative activity (the EC50 ratio of Cagrilintide to the compound): 80%
B5: polypeptide derivative M19 (peptide)
peptide: {C20 diacid}-D[AEEA][AEEA]ASQLSTAATQRLADFLRHFTDRDRDILPPTNVGSNTP-NH2
SMILES: CC[C@H](C)[C@H](NC(=O)[C@H](CC(=O)O)NC(=O)[C@H](CCCNC(=N)N)NC(=O)[C@H](CC(=O)O)NC(=O)[C@H](CCCNC(=N)N)NC(=O)[C@H](CC(=O)O)NC(=O)[C@@H](NC(=O)[C@H](Cc1ccccc1)NC(=O)[C@H](Cc1c[nH]cn1)NC(=O)[C@H](CCCNC(=N)N)NC(=O)[C@H](CC(C)C)NC(=O)[C@H](Cc1ccccc1)NC(=O)[C@H](CC(=O)O)NC(=O)[C@H](C)NC(=O)[C@H](CC(C)C)NC(=O)[C@H](CCCNC(=N)N)NC(=O)[C@H](CCC(N)=O)NC(=O)[C@@H](NC(=O)[C@H](C)NC(=O)[C@H](C)NC(=O)[C@@H](NC(=O)[C@H](CO)NC(=O)[C@H](CC(C)C)NC(=O)[C@H](CCC(N)=O)NC(=O)[C@H](CO)NC(=O)[C@H](C)NC(=O)COCCOCCNC(=O)COCCOCCNC(=O)[C@H](CC(=O)O)NC(=O)CCCCCCCCCCCCCCCCCCC(=O)O)[C@@H](C)O)[C@@H](C)O)[C@@H](C)O)C(=O)N[C@@H](CC(C)C)C(=O)N1CCC[C@H]1C(=O)N1CCC[C@H]1C(=O)N[C@H](C(=O)N[C@@H](CC(N)=O)C(=O)N[C@H](C(=O)NCC(=O)N[C@@H](CO)C(=O)N[C@@H](CC(N)=O)C(=O)N[C@H](C(=O)N1CCC[C@H]1C(N)=O)[C@@H](C)O)C(C)C)[C@@H](C)O
